From patent publication US12397037B2, “Methods and compositions for immunomodulation” (CHILDREN'S MEDICAL CENTER CORPORATION, priority 2014, dated 2025) come the findings set out here.

The test system of one data set is PI-3K. The experiment in a line: PI3-Kinase Activity ELISA. It counts as cell-based, human. The protocol: FIG. 28A depicts U87MG cells untreated (control) or following treatment with SEMA3F (640 ng/ml) for 30 minutes. Cell lysates were evaluated by phosphoprotein kinase antibody array. FIG. 28B depicts results of the array validated by Western blot analysis. FIG. 28C depicts U87MG cells treated with SEMA3F (640 ng/ml) as a time course up to 60 minutes and were analyzed by Western blot. FIGS. 28B-28C are representative of 3 independent experiments. FIG. 28D depicts U87MG, Jurkat and HUVEC cells treated with SEMA3F (200, 600, 1800 ng/ml, bars from left to right) for 15 minutes (grey bars) or 30 minutes (black bars); as a positive control, HUVEC were treated with VEGF-A (25 ng/ml) for 15 and 30 minutes. In addition, HUVEC were pre-treated with SEMA3F (1800 ng/ml) or PBS as a control for 30 minutes and subsequently VEGF-A (25 ng/ml) was added to the culture for 15 and 30 minutes. PI-3K activity was analyzed by ELISA according to the manufacturer's instructions. Data represent the mean±SD of 3 experiments.
SEMA3F inhibits Akt, mTOR, and S6K phosphorylation. To determine the effect of SEMA3F on intracellular signaling responses, levels of phosphokinases in the NRP2-expressing human glioblastoma cell line U87MG were profiled.
The VEGF-A (DVE00) ELISA kit was obtained from R&D Systems (Minneapolis, MN). […]
In general terms: ELISA stands for enzyme-linked immunosorbent assay.

The subject of another data set is VEGF. The experiment in a line: VEGF protein in conditioned media by ELISA, U87MG cells. It counts as cell-based, human. The following applies: SEMA3F, rapamycin 10 nM or Torin 1 10 nM, 30 minutes prior to DFO, supernatants after 18 hours.

Description for VEGF: In each panel data are representative of 3 independent experiments. Bar graphs represent the mean±SD of n=3 experiments performed in triplicate, *, p<0.01 vs. control.
Finally, the effect of SEMA3F on the secretion of VEGF into conditioned media (by ELISA) was determined in the absence or presence of DFO.
The VEGF-A (DVE00) ELISA kit was obtained from R&D Systems (Minneapolis, MN). […] Desferrioxamine (DFO) was purchased from Sigma-Aldrich, and the MEK inhibitor (U0126) was purchased from EMD-Millipore (Billerica, MA). pGL4.74 [hRluc/TK] vector (Promega Madison, WI) was used as an internal control in luciferase assay.

B1: SEMA3F: Human recombinant full-length His-Myc-tagged SEMA3F, secreted by transfected 293T cells and purified; class 3 semaphorin, NRP-2 ligand (protein, listed as Homo sapiens)
chain: MLVAGLLLWASLLTGAWPSFPTQDHLPATPRVRLSFKELKATGTAHFFNFLLNTTDYRILLKDEDHDRMYVGSKDYVLSLDLHDINREPLIIHWAASPQRIEECVLSGKDVNGECGNFVRLIQPWNRTHLYVCGTGAYNPMCTYVNRGRRAQATPWTQTQAVRGRGSRATDGALRPMPTAPRQDYIFYLEPERLESGKGKCPYDPKLDTASALINEELYAGVYIDFMGTDAAIFRTLGKQTAMRTDQYNSRWLNDPSFIHAELIPDSAERNDDKLYFFFRERSAEAPQSPAVYARIGRICLNDDGGHCCLVNKWSTFLKARLVCSVPGEDGIETHFDELQDVFVQQTQDVRNPVIYAVFTSSGSVFRGSAVCVYSMADIRMVFNGPFAHKEGPNYQWMPFSGKMPYPRPGTCPGGTFTPSMKSTKDYPDEVINFMRSHPLMYQAVYPLQRRPLVVRTGAPYRLTTIAVDQVDAADGRYEVLFLGTDRGTVQKVIVLPKDDQELEELMLEEVEVFKDPAPVKTMTISSKRQQLYVASAVGVTHLSLHRCQAYGAACADCCLARDPYCAWDGQACSRYTASSKRRSRRQDVRHGNPIRQCRGFNSNANKNAVESVQYGVAGSAAFLECQPRSPQATVKWLFQRDPGDRRREIRAEDRFLRTEQGLLLRALQLSDRGLYSCTATENNFKHVVTRVQLHVLGRDAVHAALFPPLSMSAPPPPGAGPPTPPYQELAQLLAQPEVGLIHQYCQGYWRHVPPSPREAPGAPRSPEPQDQKKPRNRRHHPPDT
modifications: His-Myc tag
notes: Human recombinant full-length His-Myc-tagged SEMA3F, secreted by transfected 293T cells and purified; class 3 semaphorin, NRP-2 ligand
For the molecule B1, in the data set with PI-3K (U87MG, Jurkat and HUVEC, SEMA3F 200, 600, 1800 ng/ml, 15 or 30 minutes), the PI-3K activity result is recorded as “inhibited PI-3K activity”. For the same molecule, the “VEGF-induced PI-3K activation” value in the data set on PI-3K (endothelial cells (HUVEC) pre-treated with SEMA3F 1800 ng/ml for 30 minutes, then VEGF-A 25 ng/ml) is recorded as “inhibited subsequent VEGF-induced PI-3K activation”. Moreover, the “DFO-induced VEGF protein secretion” value in the data set with VEGF was “significantly reduced”.
